# From publication PMC13190607
# Molecular target: SARS-CoV-2 core replication-transcription complex (nsp12 polymerase with nsp7 and nsp8), elongating on RNA (SARS-CoV-2) (UniProt P0DTD1)
# Experiment: single-molecule magnetic tweezers (RNA synthesis traces)
substance,measurement,value
SARS-CoV-2 nsp13 helicase (wild type) (from UniProt P0DTD1 5325-5925) (enzyme),KA of the first helicase (nsp13.1) binding to the core RTC,0.22 nM⁻¹
same,KA of the second helicase (nsp13.2) binding to RTC-nsp13.1,0.47 nM⁻¹
